molecular target: SARS-CoV-2 main protease M^pro (untagged, native termini) (SARS-CoV-2) (UniProt P0DTD1); test: ITC

| Substance | Kd | dH | stoichiometry N |
| --- | --- | --- | --- |
| compound 4 (acetyl-Gly-Phe-His aldehyde, tripeptide derivative of AT1001) | 640 nM | -12.7 kcal/mol | 1.04 |
| compound 57 (BOC-Gly-Phe-His aldehyde) (peptide) | 442 nM | -14.5 kcal/mol | 0.991 |
| compound 58 (octanoyl-Gly-Phe-His aldehyde) (peptide) | 425 nM | -16.4 kcal/mol | 0.966 |
